Laboratory results: patent publication US20150351390A1, “COMPOSITIONS AND METHODS FOR AUXIN-ANALOG CONJUGATION” (PIONEER HI-BRED INTERNATIONAL, INC., priority 2012, published 2015)

Legend:
[1] = LC-MS assay of GH3 conjugation of IAA with Asp or Glu; type: biochemical; settings: for kcat (hrs−1) IAA-Asp: conjugation of IAA with Asp by recombinant GH3 protein, IAA-Asp product by LC-MS; for kcat (hrs−1) IAA-Glu: conjugation of IAA with Glu by recombinant GH3 protein, IAA-Glu product by LC-MS; for IAA conjugation activity with Asp or Glu: result in words
In short: (§1)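 Amino acid conjugates of IAA, 2,4-D or dicamba measured by LC-MS against conjugate standards, with kinetic parameters fitted to Michaelis-Menten initial velocities. Reactions: 5 mM each of auxin, ATP and Asp or Glu with 44 to 164 μg/mL purified His-tagged GH3 (E. coli-expressed), pH 8.0 Tris, 5 mM MgCl2, 1 mM DTT, 30 °C for 3 h.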

[2] = LC-MS assay of GH3 conjugation of 2,4-D with Asp or Glu; type: biochemical; settings: for kcat (hrs−1) 2,4-D-Asp: conjugation of 2,4-D with Asp by recombinant GH3 protein, 2,4-D-Asp product by LC-MS; for kcat (hrs−1) 2,4-D-Asp / kcat (hrs−1) 2,4-D-Glu: 5 mM 2,4-D substrate; for kcat (hrs−1) 2,4-D-Glu: conjugation of 2,4-D with Glu by recombinant GH3 protein, 2,4-D-Glu product by LC-MS; for 2,4-D conjugation activity with Asp or Glu: result in words
In short: as §1

Row | Molecule | kcat (hrs−1) IAA-Asp [1] [h⁻¹] | kcat (hrs−1) IAA-Glu [1] [h⁻¹] | IAA conjugation activity with Asp or Glu [1] | kcat (hrs−1) 2,4-D-Asp [2] [h⁻¹] | kcat (hrs−1) 2,4-D-Glu [2] [h⁻¹] | 2,4-D conjugation activity with Asp or Glu [2]
1 | AtGH3-13: GH3 protein, accession CAB86642 (protein, listed as Arabidopsis thaliana) MLPKFDLTDPKASLSLLEDVTTNVTQIQDSILEAVLSRNAHTEYLKGFLNGQVDKQTFKKNVPIVTYEDIKPYINRIANGEASDLICDRPISLLVMSSGTTAGIQNLIPLTTEDGEQRIMFGSLYRSLLYKYVEGIREGKSLTFYFVNPERETASGILIRTMITCILKSVNKTNSSLWDRLQISPHEISTCEDTTQSMYCQLLCGLLQRDNVARLGAPFASVFIRVIKYLEGHWQELCSNIRTGRLSDWITDPQCVSGISKFLTAPNPDLASLIEQECSKTSWEAIVKRLWPKAKCVEAVVTGSMAQYIPLLEFYGGGLPLISSWYGSSECFMGVNVNPLCKPSDVSYTIIPSMAYFEFLEVKKDQQEAGLDPIENHVVVDLVDVKIGHDYEPVVTTFSGLYRYRVGDLLRVTGFYNNSPHFRFVGRQKVVLSLHMANTYEEDLLKAVTNAKLLLEPHDLMLMEFTSRVDSSSFVGHYVLYWELGSKVKDAKLEPNRDVMEECCFTVEKYLDPLYRQERRKDKNIGPLEIKVVKPGAFDELMNFFLSRGSSVSQYKTPRSVKTEEAVKILEANVVSEFLSQETPPWG | 0.000 | 0.000 | IAA-inactive | 0.000 | 0.018 | 2,4-D conjugases
2 | PtGH3-14: GH3 protein, accession EEE99364 (protein, listed as Populus trichocarpa) MTYDELDRNLEDLTKNAAHHQLQTLHSILQHQASVGYLQPYLSACHAPVDAATFRSQVPLSSYDDYFHLINQLANGDIDHHQPLLSADPLLCFFYSSGTSTMKPKLIPYFDSALSKAASYNAHQGSAAIFRNLVPPRPEVNKILWFLYADDAPTTRGGFKVMAASTYPLQGNKSRSNWSQTLSCISPREVVFGSNIKQQMYCHLLCALRSFDIIDGIRAAYAAGLIRAFSLLESKWEKLCDDLESGFPSLEIGDAAMKESVVEFLGGPQVDLSRRIREICAESNWGGILSKLWPNVRYVKSVTTGSMKQYYSKLKYYAGDVMILGGDYFASECCLGINLDIQQPPESTRFVMLPTTAYFEFLPFDLNESSVVGEETVDFSGVKVGKMYEVAVTTYRGLYRYRLGDIVRVVGFHNSSPLVEFVMRAPKTGYEIITEKDLMSAMESFQHSMAAEVVEFASFSDFELSPKRLKVFIEFREGCDFLQEEKLQGSVEALQRCCSSLENGLGEIYKVQKDRGEIGPLLVSVVRSGSFDGILQMAIKNGAPAGQYKPPKIIRNREIVDFMEESAVLTISLDSFHG | 0.000 | 0.000 | IAA-inactive | 0.000 | 0.015 | 2,4-D conjugases
3 | VvGH3-8: GH3 protein, accession XP_002271002 (protein, listed as Vitis vinifera) MADGEILKKLEDSTKDAVAVQLQTLHTILQRNGRSSYLQRYGASLDTGSFREAVPLSCYDDYADYIDRMADGGGGDDDGDRPLLSVDPLVCFFNSSGTSSMKPKLIPYFDSPPSKAASHIAHQGSVAILRRLFPPRQSINKVLWFLYAGNVTYTKGGFKAMAASAFPLQSNNKNPSPFLSTSASPREVILGSNVEQQMYCHILCGLRNLDFLDGIRAPYAVGLIRAFALLEFKWEQICEDLKCGFPSMEITDIAMRDSVTEVLAGPQLDLSKRIRTICEGKNWGGIVGKLWPNVRYIKCVCTGSMEQYYQKLKYYAGEIPVLGGDYFASECCVGINLDILQPPQLTRFVLLPTAAYFEFLPFTLDEEEIGDDAQETVDFSGVEVGKMYEIVVTTYRGFFRYRLGDVVRVVGFHNTSPEVEFVMRAPKTPAEILTERDLMTAMGNFQLVLRTVKMPDVTEFASFFDLDSIPKQLKIFLEVAGVLQDEKLQELGSVLRRNFSSLEDGLGGVYKLRKGRGEVGPLLVSIVKPGSFNRLLQMATENGAPASQYKPPKIIRNLEIVHFMEGSALLTVSFDSSD | 0.000 | 0.000 | IAA-inactive | 0.000 | 0.028 | 2,4-D conjugases
